Assay results taken from US20190092856A1.

Target: human OSM (recombinant, mammalian-cell derived, OSMN1-1) (human) (UniProt P13725)
Test: cell-based or functional assay

human OSM (recombinant, mammalian-cell derived, OSMN1-1) (human), sequence (P13725 26-221 limits assumed): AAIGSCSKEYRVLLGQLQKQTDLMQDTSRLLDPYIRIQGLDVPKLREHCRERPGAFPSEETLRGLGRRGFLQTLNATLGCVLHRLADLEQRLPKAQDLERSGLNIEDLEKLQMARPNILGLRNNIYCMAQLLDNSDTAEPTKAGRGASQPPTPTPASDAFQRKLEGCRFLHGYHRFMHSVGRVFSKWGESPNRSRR

- pSTAT3 inhibition EC50 (A375 cells, 5 ng/ml hOSM): 72.1 ng/ml
Substance: MAB295 (R&D Systems) (antibody)
